The text below walks through data of article PMC10921760 (ACS sensors, 2023).

For the test, the target named is Recombinant Human Integrin α4β1 Protein, CF (human, UniProt P13612 35-977; P05556 21-728). The experiment in a line: surface enhanced Raman spectroscopy.
Sequence of Recombinant Human Integrin α4β1 Protein, CF (P13612 35-977, chain 1 of 2): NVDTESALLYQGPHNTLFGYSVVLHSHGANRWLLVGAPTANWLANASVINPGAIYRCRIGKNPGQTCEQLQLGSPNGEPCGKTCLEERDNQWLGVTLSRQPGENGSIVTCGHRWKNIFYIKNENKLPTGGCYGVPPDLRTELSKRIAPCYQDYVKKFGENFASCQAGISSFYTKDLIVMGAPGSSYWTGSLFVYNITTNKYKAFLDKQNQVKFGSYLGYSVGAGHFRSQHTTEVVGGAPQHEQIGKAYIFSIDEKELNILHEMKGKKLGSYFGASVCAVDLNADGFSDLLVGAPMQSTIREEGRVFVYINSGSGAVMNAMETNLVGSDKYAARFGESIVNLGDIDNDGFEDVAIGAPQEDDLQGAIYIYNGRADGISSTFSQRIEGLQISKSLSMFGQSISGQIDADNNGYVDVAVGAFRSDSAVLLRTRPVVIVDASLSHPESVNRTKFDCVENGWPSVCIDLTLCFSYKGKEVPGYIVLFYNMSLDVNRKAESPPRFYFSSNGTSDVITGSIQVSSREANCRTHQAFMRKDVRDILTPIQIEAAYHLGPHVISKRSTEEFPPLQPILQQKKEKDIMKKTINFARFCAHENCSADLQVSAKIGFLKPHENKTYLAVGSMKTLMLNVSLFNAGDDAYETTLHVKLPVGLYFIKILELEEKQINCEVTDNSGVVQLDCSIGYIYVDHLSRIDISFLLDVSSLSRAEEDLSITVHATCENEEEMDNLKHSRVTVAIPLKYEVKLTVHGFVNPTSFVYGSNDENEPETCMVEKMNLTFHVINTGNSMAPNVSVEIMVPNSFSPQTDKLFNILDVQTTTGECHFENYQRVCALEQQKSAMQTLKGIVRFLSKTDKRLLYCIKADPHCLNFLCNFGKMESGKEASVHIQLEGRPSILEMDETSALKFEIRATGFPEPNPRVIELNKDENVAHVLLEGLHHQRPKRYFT
Sequence of Recombinant Human Integrin α4β1 Protein, CF (P05556 21-728, chain 2 of 2): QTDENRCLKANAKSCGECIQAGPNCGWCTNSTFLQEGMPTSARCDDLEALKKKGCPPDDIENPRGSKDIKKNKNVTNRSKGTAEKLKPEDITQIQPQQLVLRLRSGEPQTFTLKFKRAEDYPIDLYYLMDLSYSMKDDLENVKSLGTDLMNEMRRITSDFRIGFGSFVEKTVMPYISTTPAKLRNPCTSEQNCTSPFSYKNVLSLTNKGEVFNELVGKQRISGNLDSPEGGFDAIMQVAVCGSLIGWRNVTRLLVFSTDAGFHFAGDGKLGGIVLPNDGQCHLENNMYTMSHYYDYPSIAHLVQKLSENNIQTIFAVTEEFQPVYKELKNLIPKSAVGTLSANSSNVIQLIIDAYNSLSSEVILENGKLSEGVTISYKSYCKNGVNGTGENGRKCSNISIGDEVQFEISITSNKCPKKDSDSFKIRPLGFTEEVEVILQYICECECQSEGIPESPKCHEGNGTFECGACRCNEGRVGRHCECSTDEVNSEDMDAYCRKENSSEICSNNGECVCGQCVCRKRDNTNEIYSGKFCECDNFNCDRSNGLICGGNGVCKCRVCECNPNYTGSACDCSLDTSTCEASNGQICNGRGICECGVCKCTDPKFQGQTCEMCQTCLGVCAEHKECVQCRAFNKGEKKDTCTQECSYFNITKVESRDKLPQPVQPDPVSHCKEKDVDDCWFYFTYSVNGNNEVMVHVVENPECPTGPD

B1: Cys-Asp-Pro-Gly-Tyr-Ile-Gly-Ser-Arg (CDPGYIGSR) (peptide)
peptide: CDPGYIGSR
modifications: not fully specified; functionalized onto gold coated magnetic nanoparticles (thiol chemistry of the Cys)
On to B1, for which the binding result was “binds”.
